Patent US20190241669A1 (published 2019)
Where a chain is given by its changes, count along the chain named.

B1: L3.PY/L1.FF/H3.YA (antibody, V domains shown)
VH: EVQLLESGGGLVQPGGSLRLSCAASGFTFGSYAMTWVRQAPGKGLEWVSAISGSGGNTFYADSVKGRFTISRDNSKNTLYLQMNSLRAEDTAVYYCARVSPIYAGMDYWGQGTLVTVSS
VL: EIVLTQSPGTLSLSPGERATLSCRASQSVSSFFLAWYQQKPGQAPRLLIYGASSRATGIPDRFSGSGSGTDFTLTISRLEPEDFAVYYCQHYPYPPSFTFGQGTKVEIK
notes: IgG
B2: L1.LGF/L3.PY/H3.AP (antibody, V domains shown)
VH: B1 VH with Y103A, G105P
VL: B1 VL with V29L, S30G, F33Y
B3: L1.LGF/L3.NY/H3.AP (antibody, V domains shown)
VH: B1 VH with Y103A, G105P
VL: B1 VL with V29L, S30G, F33Y, P93N
B4: L1.LGF/L3.KW/H3.AP (antibody, V domains shown)
VH: B1 VH with Y103A, G105P
VL: B1 VL with V29L, S30G, F33Y, Q90K, P93G, Y94W
B5: L1.GDF/L3.NY/H3.AP (antibody, V domains shown)
VH: B1 VH with Y103A, G105P
VL: B1 VL with S30G, S31D, F33Y, P93N
B6: L1.GDF/L3.KW/H3.AP (antibody, V domains shown)
VH: B1 VH with Y103A, G105P
VL: B1 VL with S30G, S31D, F33Y, Q90K, P93G, Y94W
B7: L3.PY/L3.KY/H3.TAQ (antibody, V domains shown)
VH: B1 VH with A97T, Y103A, G105Q
VL: B1 VL with F32S, F33Y, Q90K, H91Y
notes: IgG
B8: L3.PY/L3.KF/H3.TAQ (antibody, V domains shown)
VH: B1 VH with A97T, Y103A, G105Q
VL: B1 VL with F32S, F33Y, Q90K, H91F
notes: IgG
B9: L3.PY/L3.KF/H2.YQ (antibody, V domains shown)
VH: B1 VH with G53Y, S54Q, Y103A, A104S
VL: B1 VL with F32S, F33Y, Q90K, H91F
notes: IgG
B10: L3.PY/L3.KY/H2.DY (antibody, V domains shown)
VH: B1 VH with S52D, G53Y, Y103A, A104S
VL: B1 VL with F32S, F33Y, Q90K, H91Y
notes: IgG
B11: L3.PY/L3.KF/H2.LT (antibody, V domains shown)
VH: B1 VH with G53L, S54T, Y103A, A104S
VL: B1 VL with F32S, F33Y, Q90K, H91F
notes: IgG
B12: L3.PY/L3.KY/H2.LT (antibody, V domains shown)
VH: B1 VH with G53L, S54T, Y103A, A104S
VL: B1 VL with F32S, F33Y, Q90K, H91Y
notes: IgG
B13: L3.PY/L1.PH/H3.TAQ (antibody, V domains shown)
VH: B1 VH with A97T, Y103A, G105Q
VL: B1 VL with S31P, F32H, F33Y
notes: IgG
B14: L3.PY/L3.KF/H3.AE (antibody, V domains shown)
VH: B1 VH with Y103A, G105E
VL: B1 VL with F32S, F33Y, Q90K, H91F
notes: IgG
B15: L3.PY/L1.PH/H2.QR (antibody, V domains shown)
VH: B1 VH with S63Q, V64R, Y103A, A104S
VL: B1 VL with S31P, F32H, F33Y
notes: IgG
B16: L3.PY/L3.KY/H2.QL (antibody, V domains shown)
VH: B1 VH with S63Q, V64L, Y103A, A104S
VL: B1 VL with F32S, F33Y, Q90K, H91Y
notes: IgG
B17: L3.PY/L3.KF/H2.QL (antibody, V domains shown)
VH: B1 VH with S63Q, V64L, Y103A, A104S
VL: B1 VL with F32S, F33Y, Q90K, H91F
notes: IgG
B18: L3.PY/L3.KY/H2.QR (antibody, V domains shown)
VH: B1 VH with S63Q, V64R, Y103A, A104S
VL: B1 VL with F32S, F33Y, Q90K, H91Y
notes: IgG
B19: L3.PY/L1.PH/H3.AQ (antibody, V domains shown)
VH: B1 VH with Y103A, G105Q
VL: B1 VL with S31P, F32H, F33Y
notes: IgG
B20: L3.PY/L3.KY/H2.HA (antibody, V domains shown)
VH: B1 VH with G53H, S54A, Y103A, A104S
VL: B1 VL with F32S, F33Y, Q90K, H91Y
notes: IgG
B21: L3.PY/L3.KF/H3.YA (antibody, V domains shown)
VH: B1 VH
VL: B1 VL with F32S, F33Y, Q90K, H91F
notes: IgG
B22: L3.PY/L1.PH/H3.AE (antibody, V domains shown)
VH: B1 VH with Y103A, G105E
VL: B1 VL with S31P, F32H, F33Y
notes: IgG
B23: L3.PY/L3.KF/H2.DY (antibody, V domains shown)
VH: B1 VH with S52D, G53Y, Y103A, A104S
VL: B1 VL with F32S, F33Y, Q90K, H91F
notes: IgG
B24: L3.PY/L3.KY/H3.YA (antibody, V domains shown)
VH: B1 VH
VL: B1 VL with F32S, F33Y, Q90K, H91Y
notes: IgG
B25: L3.PY/L3.KY/H2.YQ (antibody, V domains shown)
VH: B1 VH with G53Y, S54Q, Y103A, A104S
VL: B1 VL with F32S, F33Y, Q90K, H91Y
notes: IgG
B26: L3.PY/L1.PH/H2.HA (antibody, V domains shown)
VH: B1 VH with G53H, S54A, Y103A, A104S
VL: B1 VL with S31P, F32H, F33Y
notes: IgG

Columns and labels:
[1] = biological target: Human BCMA (human) (UniProt Q02223); test: SPR, IgG immobilised, huBCMA analyte, 37 C
[2] = biological target: T1, cynomolgus monkey BCMA (cynomolgus monkey, UniProt A0A2K5UD97 1-53); test: SPR, IgG on chip, cyBCMA analyte, 37C
T1 construct: Soluble analyte in SPR; construct not described; also called cyBCMA; Cyno BCMA
T1 sequence (A0A2K5UD97 entry or part of it): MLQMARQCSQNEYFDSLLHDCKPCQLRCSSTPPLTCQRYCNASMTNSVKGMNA

[3] = biological target: Human BCMA (human) (UniProt Q02223); test: SPR, IgG immobilised, huBCMA analyte, 25 C

| Binder | Kd [1] [nM] | T½ [1] [min] | koff [1] [s⁻¹] | kon [1] [M⁻¹ s⁻¹] | Kd [2] [nM] | T½ [2] [min] | koff [2] [s⁻¹] | kon [2] [M⁻¹ s⁻¹] | Kd [3] [nM] | T½ [3] [min] | koff [3] [s⁻¹] | kon [3] [M⁻¹ s⁻¹] |
| --- | --- | --- | --- | --- | --- | --- | --- | --- | --- | --- | --- | --- |
| B1 | 0.51 | 6.41 | 0.0018 | 3.5e+06 | 1.69 | 2.77 | 0.00416 | 2.46e+06 |  |  |  |  |
| B2 |  |  |  |  |  |  |  |  | 2.12 | 11.9 | 0.000969 | 457000 |
| B3 |  |  |  |  |  |  |  |  | 0.57 | 21.7 | 0.000533 | 936000 |
| B4 |  |  |  |  |  |  |  |  | 2.44 | 5.1 | 0.00227 | 928000 |
| B5 |  |  |  |  |  |  |  |  | 1 | 8.21 | 0.00141 | 1.41e+06 |
| B6 |  |  |  |  |  |  |  |  | 3.93 | 2.51 | 0.00461 | 1.17e+06 |
| B7 | 0.23 | 17.8 | 0.000649 | 2.79e+06 | 1.06 | 6.03 | 0.00192 | 1.81e+06 |  |  |  |  |
| B8 | 0.58 | 7.12 | 0.00162 | 2.82e+06 | 0.95 | 6.05 | 0.00191 | 2.01e+06 |  |  |  |  |
| B9 | 1.14 | 5.18 | 0.00223 | 1.96e+06 | 3.55 | 2.3 | 0.00501 | 1.41e+06 |  |  |  |  |
| B10 | 0.2 | 18 | 0.000642 | 3.19e+06 | 1.24 | 4.75 | 0.00243 | 1.96e+06 |  |  |  |  |
| B11 | 0.69 | 6.05 | 0.00191 | 2.75e+06 | 2.16 | 2.8 | 0.00413 | 1.91e+06 |  |  |  |  |
| B12 | 0.31 | 12.8 | 0.000906 | 2.92e+06 | 1.27 | 4.98 | 0.00232 | 1.82e+06 |  |  |  |  |
| B13 | 0.59 | 5.43 | 0.00213 | 3.58e+06 | 1.28 | 3.61 | 0.0032 | 2.51e+06 |  |  |  |  |
| B14 | 0.51 | 7.44 | 0.00155 | 3.07e+06 | 3.05 | 2.05 | 0.00564 | 1.85e+06 |  |  |  |  |
| B15 | 0.64 | 4.89 | 0.00236 | 3.69e+06 | 1.8 | 2.65 | 0.00436 | 2.42e+06 |  |  |  |  |
| B16 | 0.57 | 5.56 | 0.00208 | 3.65e+06 | 1.49 | 2.83 | 0.00409 | 2.75e+06 |  |  |  |  |
| B17 | 0.6 | 9.26 | 0.00125 | 2.07e+06 | 2.18 | 3.73 | 0.0031 | 1.42e+06 |  |  |  |  |
| B18 | 0.34 | 11.7 | 0.00099 | 2.95e+06 | 3.78 | 1.49 | 0.00774 | 2.05e+06 |  |  |  |  |
| B19 | 0.52 | 7.27 | 0.00159 | 3.08e+06 | 1.5 | 3.39 | 0.00341 | 2.28e+06 |  |  |  |  |
| B20 | 0.49 | 7.1 | 0.00163 | 3.29e+06 | 1.4 | 3.63 | 0.00318 | 2.28e+06 |  |  |  |  |
| B21 | 0.47 | 7.85 | 0.00147 | 3.12e+06 | 3.78 | 1.45 | 0.00796 | 2.1e+06 |  |  |  |  |
| B22 | 0.36 | 8.61 | 0.00134 | 3.68e+06 | 0.77 | 5.72 | 0.00202 | 2.61e+06 |  |  |  |  |
| B23 | 0.67 | 6.35 | 0.00182 | 2.74e+06 | 1.77 | 3.14 | 0.00368 | 2.08e+06 |  |  |  |  |
| B24 | 0.28 | 12.7 | 0.000912 | 3.3e+06 | 2.33 | 2.7 | 0.00428 | 1.84e+06 |  |  |  |  |
| B25 | 0.77 | 7.02 | 0.00165 | 2.14e+06 | 2.04 | 4.47 | 0.00258 | 1.27e+06 |  |  |  |  |
| B26 | 0.49 | 9.99 | 0.00116 | 2.37e+06 | 3.44 | 2.09 | 0.00553 | 1.61e+06 |  |  |  |  |
